Data as given in PMC7498313, “The Sac10b homolog from Sulfolobus islandicus is an RNA chaperone”.
Changes are numbered by the printed parent chain.

T1: Sis10b K17R (Sulfolobus islandicus REY15A, UniProt F0NHH1 1-97, K17R)
T1 sequence: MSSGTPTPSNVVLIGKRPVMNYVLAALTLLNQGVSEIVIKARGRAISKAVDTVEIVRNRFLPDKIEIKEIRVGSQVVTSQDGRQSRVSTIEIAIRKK

T2: Sis10b K16A (Sulfolobus islandicus REY15A, UniProt F0NHH1 1-97, K16A)
T2 sequence: T1 sequence with K16A, R17K

T3: Sis10b K17A (Sulfolobus islandicus REY15A, UniProt F0NHH1 1-97, K17A)
T3 sequence: T1 sequence with R17A

T4: Sis10b M20E/L24E/L27E/F60E (Sulfolobus islandicus REY15A, UniProt F0NHH1 1-97, M20E;L24E;L27E;F60E)
T4 sequence: T1 sequence with R17K, M20E, L24E, L27E, F60E

T5: Sis10b ΔN12 (Sulfolobus islandicus REY15A, UniProt F0NHH1 13-97, del1-12)
T5 sequence: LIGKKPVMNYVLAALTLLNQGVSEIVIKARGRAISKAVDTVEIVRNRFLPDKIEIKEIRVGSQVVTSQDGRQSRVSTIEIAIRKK

B1: 44-nt ssRNA (t) (ssRNA)
RNA: UGACUUCCGCGCGUGAGCUCGAUUCCACAUACCCUAAAUCGCUC
B2: 44-bp dsRNA (dsRNA)
RNA 1: B1 RNA
RNA 2: GAGCGAUUUAGGGUAUGUGGAAUCGAGCUCACGCGCGGAAGUCA

What was measured:
Sis10b K17R [1] = target: T1, Sis10b K17R; experiment: EMSA; 37°C; slightly weaker than dsRNA; EMSA: 20 mM HEPES-NaOH pH 7.0, 1 mM DTT, 100 ug/ml BSA, 6% glycerol, 30 min at 25, 37 or 55°C; gel in 0.5x TBE at the same temperature; conditions: protein: recombinant; tags: none; chain copies: 2; label: 5' 32P; single strand
Sis10b K16A [2] = target: T2, Sis10b K16A; experiment: as above; conditions: protein: recombinant; tags: none; chain copies: 2; label: 5' 32P; single strand
Sis10b K17A [3] = target: T3, Sis10b K17A; experiment: EMSA; 55°C; no ssRNA preference over dsRNA; EMSA: 20 mM HEPES-NaOH pH 7.0, 1 mM DTT, 100 ug/ml BSA, 6% glycerol, 30 min at 25, 37 or 55°C; gel in 0.5x TBE at the same temperature; conditions: protein: recombinant; tags: none; chain copies: 2; label: 5' 32P; single strand
Sis10b K17R [4] = target: T1, Sis10b K17R; experiment: EMSA; 55°C; EMSA: 20 mM HEPES-NaOH pH 7.0, 1 mM DTT, 100 ug/ml BSA, 6% glycerol, 30 min at 25, 37 or 55°C; gel in 0.5x TBE at the same temperature; conditions: protein: recombinant; tags: none; chain copies: 2; label: 5' 32P on top strand; blunt
[5] = target: T4, Sis10b M20E/L24E/L27E/F60E; experiment: as above; conditions: protein: recombinant; tags: none; chain copies: 2; label: 5' 32P on top strand; blunt
Sis10b ΔN12 = target: T5, Sis10b ΔN12; experiment: as above; conditions: protein: recombinant; tags: none; chain copies: 2; label: 5' 32P on top strand; blunt
Sis10b K17A [6] = target: T3, Sis10b K17A; experiment: EMSA; 37°C; 1.1-1.7-fold better than ssRNA; EMSA: 20 mM HEPES-NaOH pH 7.0, 1 mM DTT, 100 ug/ml BSA, 6% glycerol, 30 min at 25, 37 or 55°C; gel in 0.5x TBE at the same temperature; conditions: protein: recombinant; tags: none; chain copies: 2; label: 5' 32P on top strand; blunt
Sis10b K16A [7] = target: T2, Sis10b K16A; experiment: as above; conditions: protein: recombinant; tags: none; chain copies: 2; label: 5' 32P on top strand; blunt

Binder	binding result (Sis10b K17R [1])	binding result (Sis10b K16A [2])	binding result (Sis10b K17A [3])	Kd (Sis10b K17R [4]) [nM]	Kd [5] [nM]	Kd (Sis10b ΔN12) [nM]	binding result (Sis10b K17A [6])	binding result (Sis10b K16A [7])
B1	binds	binds	binds					
B2				~28.2	~82.3	~98.1	binds	binds
